# Results as given in IntAct's records for PubMed 17595167.
# B1: PAN2-PAN3 deadenylation complex subunit PAN3 (Homo sapiens), Q58A45 (parent)
# chain: MNSGGGLPPPSAAASPSSSSLAAAVAVVAPPGVGGVPGGAAVGVKLKYCRYYAKDKTCFYGEECQFLHEDPAAGAAPGLGLHSNSVPLALAGAPVAGFPPGAVAGGGAGPPPGPKKPDLGDPGTGAAAGGGGSSGGLDGPRLAIPGMDGGALTDTSLTDSYFSTSFIGVNGFGSPVETKYPLMQRMTNSSSSPSLLNDSAKPYSAHDPLTSPASSLFNDFGALNISQRRKPRKYRLGMLEERLVPMGSKARKAKNPIGCLADRCKSGVPINMVWWNRVTENNLQTPNPTASEFIPKGGSTSRLSNVSQSNMSAFSQVFSHPSMGSPATAGLAPGMSLSAGSSPLHSPKITPHTSPAPRRRSHTPNPASYMVPSSASTSVNNPVSQTPSSGQVIQKETVGGTTYFYTDTTPAPLTGMVFPNYHIYPPTAPHVAYMQPKANAPSFFMADELRQELINRHLITMAQIDQADMPAVPTEVDSYHSLFPLEPLPPPNRIQKSSNFGYITSCYKAVNSKDDLPYCLRRIHGFRLVNTKCMVLVDMWKKIQHSNIVTLREVFTTKAFAEPSLVFAYDFHAGGETMMSRHFNDPNADAYFTKRKWGQHEGPLPRQHAGLLPESLIWAYIVQLSSALRTIHTAGLACRVMDPTKILITGKTRLRVNCVGVFDVLTFDNSQNNNPLALMAQYQQADLISLGKVVLALACNSLAGIQRENLQKAMELVTINYSSDLKNLILYLLTDQNRMRSVNDIMPMIGARFYTQLDAAQMRNDVIEEDLAKEVQNGRLFRLLAKLGTINERPEFQKDPTWSETGDRYLLKLFRDHLFHQVTEAGAPWIDLSHIISCLNKLDAGVPEKISLISRDEKSVLVVTYSDLKRCFENTFQELIAAANGQL
# Variants of: B1
# Details: with pabp1_human PABPC1, P11940
# pabp1_human PABPC1, P11940, sequence (P11940 whole entry): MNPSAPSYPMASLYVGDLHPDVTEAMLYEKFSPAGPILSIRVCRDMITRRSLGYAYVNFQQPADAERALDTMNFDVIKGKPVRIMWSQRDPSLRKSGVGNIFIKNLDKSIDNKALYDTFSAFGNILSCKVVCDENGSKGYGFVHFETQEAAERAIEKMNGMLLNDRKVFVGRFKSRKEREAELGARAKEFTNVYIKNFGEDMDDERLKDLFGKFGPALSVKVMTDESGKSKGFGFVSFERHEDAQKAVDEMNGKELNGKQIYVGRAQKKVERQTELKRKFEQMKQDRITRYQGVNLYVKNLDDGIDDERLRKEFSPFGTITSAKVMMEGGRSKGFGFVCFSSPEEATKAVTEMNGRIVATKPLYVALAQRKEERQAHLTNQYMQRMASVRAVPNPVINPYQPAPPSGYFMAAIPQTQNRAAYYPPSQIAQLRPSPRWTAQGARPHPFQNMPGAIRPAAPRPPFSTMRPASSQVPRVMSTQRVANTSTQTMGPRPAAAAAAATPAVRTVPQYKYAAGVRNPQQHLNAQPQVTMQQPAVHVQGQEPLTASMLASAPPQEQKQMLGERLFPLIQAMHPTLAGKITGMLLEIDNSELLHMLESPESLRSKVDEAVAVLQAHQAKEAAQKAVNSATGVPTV
row,effect of a mutation on the interaction,Variant
1,decreasing interaction,F293A
